Results taken from paper PMC9482650, “Quantitative fragmentomics allow affinity mapping of interactomes” (Nature Communications, 2022).

What was measured:
Assay in all cases: holdup assay
Set-up in all cases: key: below the threshold = too weak to quantify, mostly under pKd 3.1 to 4
APBA1_1, Q02410 = target: T1, APBA1_1, Q02410
T1 sequence (Q02410 651-752, limits assumed, looked up): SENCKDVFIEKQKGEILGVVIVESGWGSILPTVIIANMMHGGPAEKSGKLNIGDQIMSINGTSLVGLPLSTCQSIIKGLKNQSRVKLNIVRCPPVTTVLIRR

ARHGEF11, O15085 = target: T2, ARHGEF11, O15085
T2 sequence (O15085 42-136, limits assumed, looked up): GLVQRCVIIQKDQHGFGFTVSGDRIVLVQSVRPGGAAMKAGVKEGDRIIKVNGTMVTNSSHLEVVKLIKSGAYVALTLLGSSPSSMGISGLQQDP

ARHGEF12, Q9NZN5-2 = target: ARHGEF12, Q9NZN5-2
DLG5_1, Q8TDM6 = target: DLG5_1, Q8TDM6
FRMPD3, Q5JV73 = target: FRMPD3, Q5JV73
GRID2IP_2, A4D2P6 = target: GRID2IP_2, A4D2P6
GRIP1_2, Q9Y3R0 = target: T3, GRIP1_2, Q9Y3R0
T3 sequence (Q9Y3R0 145-248, limits assumed, looked up): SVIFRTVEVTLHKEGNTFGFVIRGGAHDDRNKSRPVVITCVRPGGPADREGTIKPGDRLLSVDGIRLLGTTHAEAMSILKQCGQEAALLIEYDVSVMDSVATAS

HTRA1, Q92743 = target: HTRA1, Q92743
IL16_1, Q14005 = target: IL16_1, Q14005
IL16_3, Q14005 = target: IL16_3, Q14005
Inadl_3, Q8NI35 = target: Inadl_3, Q8NI35
Inadl_5, Q8NI35 = target: Inadl_5, Q8NI35
LNX1_2, Q8TBB1 = target: LNX1_2, Q8TBB1
MAGI2_2, Q86UL8 = target: MAGI2_2, Q86UL8
MAGI3_2, Q5TCQ9 = target: MAGI3_2, Q5TCQ9
MAST1, Q9Y2H9 = target: MAST1, Q9Y2H9
MPP7, Q5T2T1 = target: T4, MPP7, Q5T2T1
T4 sequence (Q5T2T1 134-230, limits assumed, looked up): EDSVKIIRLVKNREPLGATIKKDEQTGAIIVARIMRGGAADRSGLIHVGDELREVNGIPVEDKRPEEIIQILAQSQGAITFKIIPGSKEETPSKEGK

NHERF3_3, Q5T2W1 = target: T5, NHERF3_3, Q5T2W1
T5 sequence (Q5T2W1 238-333, limits assumed, looked up): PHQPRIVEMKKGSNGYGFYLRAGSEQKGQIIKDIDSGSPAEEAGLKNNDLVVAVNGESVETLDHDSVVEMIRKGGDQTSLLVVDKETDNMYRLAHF

PDLIM1, O00151 = target: PDLIM1, O00151
PDZRN3_1, Q9UPQ7 = target: T6, PDZRN3_1, Q9UPQ7
T6 sequence (Q9UPQ7 244-349, limits assumed, looked up): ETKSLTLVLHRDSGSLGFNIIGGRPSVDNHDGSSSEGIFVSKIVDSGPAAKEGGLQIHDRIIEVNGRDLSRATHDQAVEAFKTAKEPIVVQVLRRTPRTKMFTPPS

PTPN3, P26045 = target: PTPN3, P26045
RADIL, Q96JH8 = target: T7, RADIL, Q96JH8
T7 sequence (Q96JH8 971-1071, limits assumed, looked up): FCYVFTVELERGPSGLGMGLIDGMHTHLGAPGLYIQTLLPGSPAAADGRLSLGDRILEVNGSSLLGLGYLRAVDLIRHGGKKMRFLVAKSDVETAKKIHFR

RAPGEF6, Q8TEU7 = target: T8, RAPGEF6, Q8TEU7
T8 sequence (Q8TEU7 525-625, limits assumed, looked up): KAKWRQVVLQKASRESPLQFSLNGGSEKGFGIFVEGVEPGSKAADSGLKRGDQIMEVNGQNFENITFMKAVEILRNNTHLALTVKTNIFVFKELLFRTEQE

RHPN1, Q8TCX5 = target: T9, RHPN1, Q8TCX5
T9 sequence (Q8TCX5 508-602, limits assumed, looked up): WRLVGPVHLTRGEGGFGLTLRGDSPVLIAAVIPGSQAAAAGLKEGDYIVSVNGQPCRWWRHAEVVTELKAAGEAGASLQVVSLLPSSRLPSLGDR

SNTA1, Q13424 = target: T10, SNTA1, Q13424
T10 sequence (Q13424 82-180, limits assumed, looked up): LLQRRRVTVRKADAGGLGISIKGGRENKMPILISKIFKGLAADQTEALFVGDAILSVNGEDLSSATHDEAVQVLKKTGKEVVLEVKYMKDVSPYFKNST

SNTG2, Q9NY99 = target: T11, SNTG2, Q9NY99
T11 sequence (Q9NY99 68-166, limits assumed, looked up): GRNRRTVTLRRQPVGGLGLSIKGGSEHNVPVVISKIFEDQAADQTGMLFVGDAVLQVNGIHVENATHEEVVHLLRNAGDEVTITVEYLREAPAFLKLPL

TJP1_3, Q07157 = target: TJP1_3, Q07157
[1] = plain residues with an end cap or a label only (N-terminal biotin on a linker: ttds)
[2] = plain residues with an end cap or a label only (N-terminal biotin on a linker: ahx)

Sequence of Inadl_5, Q8NI35 (Q8NI35 673-780): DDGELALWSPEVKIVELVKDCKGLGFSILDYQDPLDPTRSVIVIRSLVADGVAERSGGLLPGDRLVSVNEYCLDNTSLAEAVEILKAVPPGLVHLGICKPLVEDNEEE
Sequence of PTPN3, P26045 (P26045 505-587): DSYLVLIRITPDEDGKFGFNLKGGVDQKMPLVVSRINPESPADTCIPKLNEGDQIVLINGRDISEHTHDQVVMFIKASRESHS
Sequence of LNX1_2, Q8TBB1 (Q8TBB1 371-470): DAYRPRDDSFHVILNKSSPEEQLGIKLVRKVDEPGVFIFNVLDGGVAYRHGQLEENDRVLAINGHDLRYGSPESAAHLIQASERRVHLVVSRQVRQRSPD
Sequence of TJP1_3, Q07157 (Q07157 416-512): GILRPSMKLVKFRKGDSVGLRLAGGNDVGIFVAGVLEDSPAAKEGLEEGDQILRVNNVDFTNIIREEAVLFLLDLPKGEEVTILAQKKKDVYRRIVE
Sequence of DLG5_1, Q8TDM6 (Q8TDM6 617-713): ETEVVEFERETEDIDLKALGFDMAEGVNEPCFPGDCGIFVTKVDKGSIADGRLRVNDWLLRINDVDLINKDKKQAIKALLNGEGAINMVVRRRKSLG
Sequence of MAGI3_2, Q5TCQ9 (Q5TCQ9 398-503): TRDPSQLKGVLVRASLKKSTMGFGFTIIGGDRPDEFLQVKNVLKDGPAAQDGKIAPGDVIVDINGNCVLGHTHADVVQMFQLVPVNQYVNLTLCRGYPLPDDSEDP
Sequence of ARHGEF12, Q9NZN5-2 (Q9NZN5 other isoform, or with tags, fused parts or gaps): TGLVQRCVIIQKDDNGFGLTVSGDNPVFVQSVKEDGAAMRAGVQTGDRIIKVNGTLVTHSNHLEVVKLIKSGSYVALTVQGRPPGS
Sequence of Inadl_3, Q8NI35 (Q8NI35 359-469): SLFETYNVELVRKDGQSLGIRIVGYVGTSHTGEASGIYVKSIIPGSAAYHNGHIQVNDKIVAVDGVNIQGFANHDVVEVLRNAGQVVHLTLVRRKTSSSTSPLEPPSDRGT
Sequence of GRID2IP_2, A4D2P6 (A4D2P6 272-370): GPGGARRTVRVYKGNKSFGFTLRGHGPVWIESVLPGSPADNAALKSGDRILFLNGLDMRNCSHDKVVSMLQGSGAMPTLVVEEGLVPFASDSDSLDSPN
Sequence of IL16_1, Q14005 (Q14005 210-306): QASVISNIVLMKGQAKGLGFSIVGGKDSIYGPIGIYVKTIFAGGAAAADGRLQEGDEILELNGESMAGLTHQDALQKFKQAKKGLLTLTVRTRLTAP
Sequence of IL16_3, Q14005 (Q14005 1107-1207): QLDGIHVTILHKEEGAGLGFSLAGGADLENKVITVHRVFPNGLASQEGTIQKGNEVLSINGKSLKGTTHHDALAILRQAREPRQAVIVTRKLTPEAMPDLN
Sequence of FRMPD3, Q5JV73 (Q5JV73 12-100): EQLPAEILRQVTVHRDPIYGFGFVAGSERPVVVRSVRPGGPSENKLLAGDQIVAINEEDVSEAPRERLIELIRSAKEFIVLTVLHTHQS
Sequence of PDLIM1, O00151 (O00151 1-87): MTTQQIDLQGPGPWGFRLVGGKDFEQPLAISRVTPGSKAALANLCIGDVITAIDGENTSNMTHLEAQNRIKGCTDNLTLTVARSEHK
Sequence of HTRA1, Q92743 (Q92743 360-477): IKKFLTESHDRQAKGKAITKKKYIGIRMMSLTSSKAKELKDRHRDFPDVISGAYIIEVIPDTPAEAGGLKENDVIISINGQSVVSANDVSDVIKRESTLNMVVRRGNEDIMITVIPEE
Sequence of MAGI2_2, Q86UL8 (Q86UL8 410-522): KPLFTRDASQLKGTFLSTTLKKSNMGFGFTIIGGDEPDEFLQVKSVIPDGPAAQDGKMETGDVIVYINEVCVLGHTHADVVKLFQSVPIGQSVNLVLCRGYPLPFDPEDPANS
Sequence of MAST1, Q9Y2H9 (Q9Y2H9 962-1065): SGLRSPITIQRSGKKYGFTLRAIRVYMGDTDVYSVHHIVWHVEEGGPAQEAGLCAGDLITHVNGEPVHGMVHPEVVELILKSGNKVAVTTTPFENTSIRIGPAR

In the case of RRVRKLPSTTL [RPS6KA1, Q15418], the pKd (APBA1_1, Q02410; [1]) is reported as “below the threshold”, the pKd (ARHGEF11, O15085; [1]) is reported as 4.44 and the pKd (ARHGEF12, Q9NZN5-2; [1]) is reported as 5.45. The pKd (DLG5_1, Q8TDM6; [1]) was “below the threshold”, the pKd (FRMPD3, Q5JV73; [1]) was “below the threshold” and the pKd (GRID2IP_2, A4D2P6; [1]) was 5.05. For the same binder, the pKd (GRIP1_2, Q9Y3R0; [1]) was “below the threshold”, the pKd (HTRA1, Q92743; [1]) was 4.09 and the pKd (IL16_1, Q14005; [1]) was “below the threshold”. The pKd (IL16_3, Q14005; [1]) was “below the threshold”, the pKd (Inadl_3, Q8NI35; [1]) was “below the threshold” and the pKd (Inadl_5, Q8NI35; [1]) was “below the threshold”. For the same binder, the pKd (LNX1_2, Q8TBB1; [1]) was 3.52, the pKd (MAGI2_2, Q86UL8; [1]) was 4.4 and the pKd (MAGI3_2, Q5TCQ9; [1]) was 4.23. The pKd (MAST1, Q9Y2H9; [1]) was 4.68, the pKd (MPP7, Q5T2T1; [1]) was 3.61 and the pKd (NHERF3_3, Q5T2W1; [1]) was 3.61. It also gave a pKd (PDLIM1, O00151; [1]) of 3.49, a pKd (PDZRN3_1, Q9UPQ7; [1]) of 3.75 and a pKd (PTPN3, P26045; [1]) of 3.93. For the same binder, the pKd (RADIL, Q96JH8; [1]) was 3.54, the pKd (RAPGEF6, Q8TEU7; [1]) was 3.7 and the pKd (RHPN1, Q8TCX5; [1]) was 4.26. For the same binder, the pKd (SNTA1, Q13424; [1]) was 3.87, the pKd (SNTG2, Q9NY99; [1]) was 4.54 and the pKd (TJP1_3, Q07157; [1]) was “below the threshold”.

With EDEDEQVSAV [RAPGEF2, Q9Y4G8] the pKd (APBA1_1, Q02410; [2]) was “below the threshold”, the pKd (ARHGEF11, O15085; [2]) was 4.1 and the pKd (ARHGEF12, Q9NZN5-2; [2]) was 3.71. The pKd (DLG5_1, Q8TDM6; [2]) was “below the threshold”, the pKd (FRMPD3, Q5JV73; [2]) was “below the threshold” and the pKd (GRID2IP_2, A4D2P6; [2]) was 4.28. For the same binder, the pKd (GRIP1_2, Q9Y3R0; [2]) was “below the threshold”, the pKd (HTRA1, Q92743; [2]) was 4.18 and the pKd (IL16_1, Q14005; [2]) was 4.17. The pKd (IL16_3, Q14005; [2]) was “below the threshold”, the pKd (Inadl_3, Q8NI35; [2]) was “below the threshold” and the pKd (Inadl_5, Q8NI35; [2]) was “below the threshold”. For the same binder, the pKd (LNX1_2, Q8TBB1; [2]) was “below the threshold”, the pKd (MAGI2_2, Q86UL8; [2]) was “below the threshold” and the pKd (MAGI3_2, Q5TCQ9; [2]) was “below the threshold”. The pKd (MAST1, Q9Y2H9; [2]) was 4.22, the pKd (MPP7, Q5T2T1; [2]) was “below the threshold” and the pKd (NHERF3_3, Q5T2W1; [2]) was “below the threshold”. The pKd (PDLIM1, O00151; [2]) was “below the threshold”, the pKd (PDZRN3_1, Q9UPQ7; [2]) was “below the threshold” and the pKd (PTPN3, P26045; [2]) was 4.39. For the same binder, the pKd (RADIL, Q96JH8; [2]) was “below the threshold”, the pKd (RAPGEF6, Q8TEU7; [2]) was “below the threshold” and the pKd (RHPN1, Q8TCX5; [2]) was 4.23. The pKd (SNTA1, Q13424; [2]) was 3.61, the pKd (SNTG2, Q9NY99; [2]) was “below the threshold” and the pKd (TJP1_3, Q07157; [2]) was “below the threshold”.

In the case of KKNKDKEYYV [NRXN1, Q9ULB1], the pKd (APBA1_1, Q02410; [2]) is reported as “below the threshold”, the pKd (ARHGEF11, O15085; [2]) is reported as “below the threshold” and the pKd (ARHGEF12, Q9NZN5-2; [2]) is reported as “below the threshold”. For the same binder, the pKd (DLG5_1, Q8TDM6; [2]) was “below the threshold”, the pKd (FRMPD3, Q5JV73; [2]) was 3.5 and the pKd (GRID2IP_2, A4D2P6; [2]) was “below the threshold”. The pKd (GRIP1_2, Q9Y3R0; [2]) was “below the threshold”, the pKd (HTRA1, Q92743; [2]) was 4.84 and the pKd (IL16_1, Q14005; [2]) was “below the threshold”. For the same binder, the pKd (IL16_3, Q14005; [2]) was “below the threshold”, the pKd (Inadl_3, Q8NI35; [2]) was “below the threshold” and the pKd (Inadl_5, Q8NI35; [2]) was 4.25. For the same binder, the pKd (LNX1_2, Q8TBB1; [2]) was 3.58, the pKd (MAGI2_2, Q86UL8; [2]) was 3.67 and the pKd (MAGI3_2, Q5TCQ9; [2]) was 4.6. For the same binder, the pKd (MAST1, Q9Y2H9; [2]) was “below the threshold”, the pKd (MPP7, Q5T2T1; [2]) was 4.29 and the pKd (NHERF3_3, Q5T2W1; [2]) was “below the threshold”. The pKd (PDLIM1, O00151; [2]) was “below the threshold”, the pKd (PDZRN3_1, Q9UPQ7; [2]) was “below the threshold” and the pKd (PTPN3, P26045; [2]) was “below the threshold”. The pKd (RADIL, Q96JH8; [2]) was 4.2, the pKd (RAPGEF6, Q8TEU7; [2]) was “below the threshold” and the pKd (RHPN1, Q8TCX5; [2]) was “below the threshold”. For the same binder, the pKd (SNTA1, Q13424; [2]) was “below the threshold”, the pKd (SNTG2, Q9NY99; [2]) was “below the threshold” and the pKd (TJP1_3, Q07157; [2]) was “below the threshold”.
